Results: patent US20250388673A1 (HIFIBIO, published 2025)

T1: human BTLA (human, UniProt Q7Z6A9 31-289)
T1 construct: also called hBTLA; HEK293.hBTLA
T1 sequence: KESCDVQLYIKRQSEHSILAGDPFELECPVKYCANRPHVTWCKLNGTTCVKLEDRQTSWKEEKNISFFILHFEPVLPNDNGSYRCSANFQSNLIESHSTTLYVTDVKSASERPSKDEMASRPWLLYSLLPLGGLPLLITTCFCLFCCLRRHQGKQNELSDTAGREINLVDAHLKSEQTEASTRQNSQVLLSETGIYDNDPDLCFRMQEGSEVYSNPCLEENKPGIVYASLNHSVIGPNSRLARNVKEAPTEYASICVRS


target: T1, human BTLA; experiment: flow cytometry, HEK293 cells overexpressing human BTLA
Protocol: HEK293 cells overexpressing human BTLA and Expi293 cells overexpressing cynomolus BTLA were incubated with different concentrations of humanized anti-BTLA antibodies. Anti-BTLA antibody binding to target cells were quantified with an AF647-conjugated anti-human IgG Fc secondary antibody by flow cytometry.

Row | Binder | binding result
1 | HFB6-5hz12-hG1 (antibody, human IgG1, V domains shown, Humanized variant of HFB6-5, human IgG1 (hG1)) VH: EVQLVQSGAEVKKPGESLKISCKGSGVNIKDTYMYWVRQMPGKGLEWIGRIDPANGYTRYSPSFQGQVTISADKSISTAYLQLSSLKASDTAMYYCAVYDGYYESFDVWGQGTLVTVSS VL: DVVMTQSPLSLPVTLGQPASISCRSSQSLLDSDGKTYLNWLQQRPGQSPRRLIYLVSKRDSGVPDRFSGSGSGTDFTLKISRVEAEDLGVYYCWQGTLFPRTFGQGTKLEIK | binds
2 | HFB6-5hz13-hG1 (antibody, human IgG1, V domains shown, Humanized variant of HFB6-5, human IgG1 (hG1)) VH: QVQLVQSGAEVKKPGSSVKVSCKASGVNIKDTYMYWVRQAPGQGLEWIGRIDPANGYARYAQKFQGRATITADESTSTAYMELSSLRSEDTAVYYCAVYDGYYESFDVWGQGTLVTVSS VL: EIVLTQSPGTLSVSPGERATISCRSSQSLLDSDGKTYLNWLQQKPGQAPRRLIYLVSKRDTGVPDRFSGSGSGTDFTLTISRVEPEDFAVYYCWQGTLFPRTFGQGTKLEIK | binds
3 | HFB6-5hz14-hG1 (antibody, human IgG1, V domains shown, Humanized variant of HFB6-5, human IgG1 (hG1)) VH: QVQLVQSGAEVKKPGASVKVSCKASGVNIKDTYMYWVRQAPGQGLEWIGRIDPANGYTRYAQKFQGRATITADTSTSTVYMELSSLRSEDTAVYYCAVYDGYYESFDVWGQGTLVTVSS VL: EIVLTQSPGTLSVSPGERATISCRSSQSLLDSDGKTYLNWLQQKPGQAPRRLIYLVSKRDTGVPDRFSGSGSGTDFTLTISRVEPEDFAVYYCWQGTLFPRTFGQGTKLEIK | binds
4 | HFB6-5hz15-hG1 (antibody, human IgG1, V domains shown, Humanized variant of HFB6-5, human IgG1 (hG1)) VH: EVQLVESGGGLVQPGRSLRLSCTASGVNIKDTYMYWVRQAPGKGLEWVGRIDPANGYTRYTASFKGRATISADGSKSIAYLQMNSLKTEDTAVYYCAVYDGYYESFDVWGQGTLVTVSS VL: EIVLTQSPGTLSVSPGERATISCRSSQSLLDSDGKTYLNWLQQKPGQAPRRLIYLVSKRDTGVPDRFSGSGSGTDFTLTISRVEPEDFAVYYCWQGTLFPRTFGQGTKLEIK | binds
5 | HFB6-5hz16-hG1 (antibody, human IgG1, V domains shown, Humanized variant of HFB6-5, human IgG1 (hG1)) VH: EVQLVESGGGLVQPGGSLKLSCAASGVNIKDTYMYWVRQASGKGLEWIGRIDPANGYTRYAASFKGRATISADDSKNTAYLQLNSLKTEDTAVYYCAVYDGYYESFDVWGQGTLVTVSS VL: EIVLTQSPGTLSVSPGERATISCRSSQSLLDSDGKTYLNWLQQKPGQAPRRLIYLVSKRDTGVPDRFSGSGSGTDFTLTISRVEPEDFAVYYCWQGTLFPRTFGQGTKLEIK | binds
6 | HFB6-4hz1-hG1 (antibody, V domains shown, Humanized variant of HFB6-4, human IgG1 (hG1); Only VH and VL are tied to the name) VH: QVQLVQSGAEVKKPGSSVKVSCKTSGFNIKDTYIHWVRQAPGQGLEWIGRNDPANGNTKYAQKFQGRATITADESTSTAYMELSSLRSEDTAVYYCASYEGYYERFGYWGQGTLVTVSS VL: DIQMTQSPSSLSASVGDRVTITCRSSQSLLDRDGKSYLNWLQQKPGKAPKRLIYLVSKLDSGVPSRFSGSGSGTDFTLTISSLQPEDFATYYCWQDTHFPYTFGQGTKLEIK | binds
7 | HFB6-4hz2-hG1 (antibody, human IgG1, V domains shown, Humanized variant of HFB6-4, human IgG1 (hG1)) VH: QVQLVQSGAEVKKPGASVKVSCKTSGFNIKDTYIHWVRQAPGQGLEWIGRNDPANGNTKYAQKFQGRVTMTADTSTSTVYMELSSLRSEDTAVYYCASYEGYYERFGYWGQGTLVTVSS VL: DIQMTQSPSSLSASVGDRVTITCRSSQSLLDRDGKSYLNWLQQKPGKAPKRLIYLVSKLDSGVPSRFSGSGSGTDFTLTISSLQPEDFATYYCWQDTHFPYTFGQGTKLEIK | binds
8 | HFB6-5hz17-hG1 (antibody, human IgG1, V domains shown, Humanized variant of HFB6-5, human IgG1 (hG1)) VH: QVQLQESGPGLVKPSGTLSLTCAASGVNIKDTYMYWVRQPPGKGLEWIGRIDPANGYTRYNPSFKSRATISADKSKNQASLKLSSVTAADTAVYYCAVYDGYYESFDVWGQGTLVTVSS VL: EIVLTQSPGTLSVSPGERATISCRSSQSLLDSDGKTYLNWLQQKPGQAPRRLIYLVSKRDTGVPDRFSGSGSGTDFTLTISRVEPEDFAVYYCWQGTLFPRTFGQGTKLEIK | binds
9 | HFB6-5hz18-hG1 (antibody, human IgG1, V domains shown, Humanized variant of HFB6-5, human IgG1 (hG1)) VH: EVQLVQSGAEVKKPGESLKISCKGSGVNIKDTYMYWVRQMPGKGLEWIGRIDPANGYTRYSPSFQGQVTISADKSISTAYLQLSSLKASDTAMYYCAVYDGYYESFDVWGQGTLVTVSS VL: EIVLTQSPGTLSVSPGERATISCRSSQSLLDSDGKTYLNWLQQKPGQAPRRLIYLVSKRDTGVPDRFSGSGSGTDFTLTISRVEPEDFAVYYCWQGTLFPRTFGQGTKLEIK | binds
10 | HFB6-5hz19-hG1 (antibody, human IgG1, V domains shown, Humanized variant of HFB6-5, human IgG1 (hG1)) VH: QVQLVQSGAEVKKPGSSVKVSCKASGVNIKDTYMYWVRQAPGQGLEWIGRIDPANGYARYAQKFQGRATITADESTSTAYMELSSLRSEDTAVYYCAVYDGYYESFDVWGQGTLVTVSS VL: DIVMTQSPDSLAVSLGERATINCKSSQSLLDSDGKTYLNWLQQKPGQSPKRLIYLVSKLDSGVPDRFSGSGSGTDFTLTISSVQAEDLAVYYCWQGTLFPRTFGQGTKLEIK | binds
11 | HFB6-5hz20-hG1 (antibody, human IgG1, V domains shown, Humanized variant of HFB6-5, human IgG1 (hG1)) VH: QVQLVQSGAEVKKPGASVKVSCKASGVNIKDTYMYWVRQAPGQGLEWIGRIDPANGYTRYAQKFQGRATITADTSTSTVYMELSSLRSEDTAVYYCAVYDGYYESFDVWGQGTLVTVSS VL: DIVMTQSPDSLAVSLGERATINCKSSQSLLDSDGKTYLNWLQQKPGQSPKRLIYLVSKLDSGVPDRFSGSGSGTDFTLTISSVQAEDLAVYYCWQGTLFPRTFGQGTKLEIK | binds
12 | HFB6-5hz21-hG1 (antibody, human IgG1, V domains shown, Humanized variant of HFB6-5, human IgG1 (hG1)) VH: EVQLVESGGGLVQPGRSLRLSCTASGVNIKDTYMYWVRQAPGKGLEWVGRIDPANGYTRYTASFKGRATISADGSKSIAYLQMNSLKTEDTAVYYCAVYDGYYESFDVWGQGTLVTVSS VL: DIVMTQSPDSLAVSLGERATINCKSSQSLLDSDGKTYLNWLQQKPGQSPKRLIYLVSKLDSGVPDRFSGSGSGTDFTLTISSVQAEDLAVYYCWQGTLFPRTFGQGTKLEIK | binds
13 | HFB6-5hz22-hG1 (antibody, human IgG1, V domains shown, Humanized variant of HFB6-5, human IgG1 (hG1)) VH: EVQLVESGGGLVQPGGSLKLSCAASGVNIKDTYMYWVRQASGKGLEWIGRIDPANGYTRYAASFKGRATISADDSKNTAYLQLNSLKTEDTAVYYCAVYDGYYESFDVWGQGTLVTVSS VL: DIVMTQSPDSLAVSLGERATINCKSSQSLLDSDGKTYLNWLQQKPGQSPKRLIYLVSKLDSGVPDRFSGSGSGTDFTLTISSVQAEDLAVYYCWQGTLFPRTFGQGTKLEIK | binds
14 | HFB6-5hz23-hG1 (antibody, human IgG1, V domains shown, Humanized variant of HFB6-5, human IgG1 (hG1)) VH: QVQLQESGPGLVKPSGTLSLTCAASGVNIKDTYMYWVRQPPGKGLEWIGRIDPANGYTRYNPSFKSRATISADKSKNQASLKLSSVTAADTAVYYCAVYDGYYESFDVWGQGTLVTVSS VL: DIVMTQSPDSLAVSLGERATINCKSSQSLLDSDGKTYLNWLQQKPGQSPKRLIYLVSKLDSGVPDRFSGSGSGTDFTLTISSVQAEDLAVYYCWQGTLFPRTFGQGTKLEIK | binds
15 | HFB6-5hz24-hG1 (antibody, human IgG1, V domains shown, Humanized variant of HFB6-5, human IgG1 (hG1)) VH: EVQLVQSGAEVKKPGESLKISCKGSGVNIKDTYMYWVRQMPGKGLEWIGRIDPANGYTRYSPSFQGQVTISADKSISTAYLQLSSLKASDTAMYYCAVYDGYYESFDVWGQGTLVTVSS VL: DIVMTQSPDSLAVSLGERATINCKSSQSLLDSDGKTYLNWLQQKPGQSPKRLIYLVSKLDSGVPDRFSGSGSGTDFTLTISSVQAEDLAVYYCWQGTLFPRTFGQGTKLEIK | binds
16 | HFB6-4hz3-hG1 (antibody, human IgG1, V domains shown, Humanized variant of HFB6-4, human IgG1 (hG1)) VH: EVQLVESGGGLVQPGRSLRLSCTTSGFNIKDTYIHWFRQAPGKGLEWVGRNDPANGNTKYTASFKGRATISADGSKSIAYLQMNSLKTEDTAVYYCASYEGYYERFGYWGQGTLVTVSS VL: DIQMTQSPSSLSASVGDRVTITCRSSQSLLDRDGKSYLNWLQQKPGKAPKRLIYLVSKLDSGVPSRFSGSGSGTDFTLTISSLQPEDFATYYCWQDTHFPYTFGQGTKLEIK | binds
17 | HFB6-4hz4-hG1 (antibody, human IgG1, V domains shown, Humanized variant of HFB6-4, human IgG1 (hG1)) VH: EVQLVESGGGLVQPGGSLKLSCATSGFNIKDTYIHWVRQASGKGLEWIGRNDPANGNTKYAASFKGRATISADDSKNTAYLQLNSLKTEDTAVYYCASYEGYYERFGYWGQGTLVTVSS VL: DIQMTQSPSSLSASVGDRVTITCRSSQSLLDRDGKSYLNWLQQKPGKAPKRLIYLVSKLDSGVPSRFSGSGSGTDFTLTISSLQPEDFATYYCWQDTHFPYTFGQGTKLEIK | binds
18 | HFB6-5-hG1 (human-mouse chimeric monoclonal antibody) (antibody, human IgG1, kappa, V domains shown, also called HFB-5; HFB6-5 parental antibody) VH: EVQLQQSGAELVKPGASVKLSCTASGVNIKDTYMYWVKQRPEQGLEWIGRIDPANGYTRYDPKFQGKATITADTSSNTAHLQLSSLTSEDAAVYYCAVYDGYYESFDVWGAGTTVTVSS VL: not shown | binds
19 | HFB6-4hz5-hG1 (antibody, human IgG1, V domains shown, Humanized variant of HFB6-4, human IgG1 (hG1)) VH: QVQLQESGPGLVKPSGTLSLTCAVSGFNIKDTYIHWVRQPPGKGLEWIGRNDPANGNTKYNPSFKSRATISADKSKNQASLKLSSVTAADTAVYYCASYEGYYERFGYWGQGTLVTVSS VL: DIQMTQSPSSLSASVGDRVTITCRSSQSLLDRDGKSYLNWLQQKPGKAPKRLIYLVSKLDSGVPSRFSGSGSGTDFTLTISSLQPEDFATYYCWQDTHFPYTFGQGTKLEIK | binds
20 | HFB6-4hz6-hG1 (antibody, human IgG1, V domains shown, Humanized variant of HFB6-4, human IgG1 (hG1)) VH: EVQLVQSGAEVKKPGESLKISCKTSGFNIKDTYIHWVRQMPGKGLEWIGRNDPANGNTKYSPSFQGQVTISADKSISTAYLQLSSLKASDTAMYYCASYEGYYERFGYWGQGTLVTVSS VL: DIQMTQSPSSLSASVGDRVTITCRSSQSLLDRDGKSYLNWLQQKPGKAPKRLIYLVSKLDSGVPSRFSGSGSGTDFTLTISSLQPEDFATYYCWQDTHFPYTFGQGTKLEIK | binds
